This is an account of results in US7045576B2, “Adjuvants and copolymer compositions” (Cytrx Corporation, priority 1994, dated 2006).

For one assay, the system named is EG-7.OVA cells. Description: OVA-specific cytotoxic T-lymphocyte (CTL) 51Cr-release assay. The class given is cell-based, C57BL/6 mice. The conditions noted are these: after culture of spleen cells with irradiated EG-7.OVA; two immunizations. From the text: FIG. 12 presents OVA-specific cytotoxic T-lymphocyte (CTL) responses induced in C57BL/6 mice following two immunizations (days 0 and 28) with OVA in saline (left) or formulated in aqueous solution with CRL1005 copolymer adjuvant (right). A standard ^51 chromium (CR)-release CTL assay was used with OVA-transfected EG-7.OVA cells and control EL-4 cells as the targets. Spleen cells were used as the source of precursor CTL, which were induced to mature to functional CTL effector cells, by culture for 6 days with irradiated EG-7.OVA or EL-4 cells. All testing was done in triplicate using a titration of Effector: Target cells, shown as ratios. Data are shown as the Percent Specific Release (Test Release−Spontaneous Release/Maximum Release−Spontaneous Release)×100.
Cytotoxic T-lymphocyte responses (CTL) were measured using a standard in vitro assay and two different cells for stimulator and target cells. The OVA.EG7 cell line was used as both target cells and antigen specific stimulator cells; cells were irradiated when used as stimulator cells. Control target cells were wild-type EL-4 cells, that are not transfected with OVA. Splenic mononuclear cells were used as the effector cells. These cells were assayed after in vitro stimulation to induce precursor CTL maturation to functional CTL effector cells.

Assay [1] deals with ovalbumin (OVA). The experiment in a line: Serum antibody responses to OVA after s.c., oral or nasal delivery. The assay is classed as in vivo, C57BL/6 mice. The method, then: The utility of the CRL1005 copolymer for use as an oral vaccine adjuvant/delivery system using OVA as the vaccine antigen was evaluated. To ensure immunogenicity of the formulation, C57BLJ6 mice in the positive control group were immunized twice, at ten day intervals, subcutaneously (s.c.) with 25 μg/100 μl dose of OVA+/−1.25% CRL1005 in PBS. Mice immunized orally received 125 μg/500 μl dose of +/−1.25% CRL1005 in bicarbonate buffer, again at 10 day intervals. Mice were also immunized using nasal delivery since dilution or degradation in the stomach was considered to be a possibility. Mice received the same amounts of OVA and CRL1005 used for the s c injections but in a volume of 20 μl. Blood was collected as the source of serum antibodies for testing 14 days after the second immunization.
ovalbumin (OVA), sequence (P01012 whole entry): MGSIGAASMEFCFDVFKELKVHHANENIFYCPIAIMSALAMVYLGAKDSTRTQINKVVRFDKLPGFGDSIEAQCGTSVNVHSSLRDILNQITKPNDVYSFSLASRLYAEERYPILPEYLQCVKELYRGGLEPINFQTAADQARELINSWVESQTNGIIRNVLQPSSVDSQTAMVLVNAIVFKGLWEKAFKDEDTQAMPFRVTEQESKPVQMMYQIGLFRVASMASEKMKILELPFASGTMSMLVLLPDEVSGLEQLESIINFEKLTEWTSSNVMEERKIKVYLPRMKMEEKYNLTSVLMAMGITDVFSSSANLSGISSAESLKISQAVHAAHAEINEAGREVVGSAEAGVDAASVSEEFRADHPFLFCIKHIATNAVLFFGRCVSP

The test system of assay [2] is ovalbumin (OVA). The class given is in vivo, C57BL/6 mice. As to conditions: two immunizations with 15 μg of OVA in saline, no adjuvant, 4 weeks.
Description: The immune responses induced by experimental subunit vaccine formulations based on a prototype immunogen combined with different adjuvants including CRL1005 were evaluated. Ovalbumin (OVA) was selected as to vaccine immunogen since dose levels of OVA for obtaining optimal and suboptimal immune responses had been established previously. […] OVA was administered at a dose of 15 ug/dose in a total volume of 100 ul. This dose of OVA had been established as non-immunogenic unless combined with an adjuvant.
Ninety mice (C57BL/6) were divided into 9 test and control groups of 10 mice per group. The mice were immunized twice with 28 days between immunizations. Vaccines were administered by needle injection subcutaneously (s.c.) in a total volume of 100 μ/dose.
To evaluate antibody responses, 4 weeks after the second immunization blood was collected via the retro-orbital sinus from 6 mice/group and sera was recovered for serological assay.
For assay [3], the system named is splenic mononuclear cells. The assay is classed as cell-based, C57BL/6 mice. As to conditions: immunization with OVA alone.

B1: OVA: ovalbumin, prototype vaccine immunogen given without adjuvant (protein, UniProt P01012 2-386, looked up)
Ovalbumin: GSIGAASMEFCFDVFKELKVHHANENIFYCPIAIMSALAMVYLGAKDSTRTQINKVVRFDKLPGFGDSIEAQCGTSVNVHSSLRDILNQITKPNDVYSFSLASRLYAEERYPILPEYLQCVKELYRGGLEPINFQTAADQARELINSWVESQTNGIIRNVLQPSSVDSQTAMVLVNAIVFKGLWEKAFKDEDTQAMPFRVTEQESKPVQMMYQIGLFRVASMASEKMKILELPFASGTMSMLVLLPDEVSGLEQLESIINFEKLTEWTSSNVMEERKIKVYLPRMKMEEKYNLTSVLMAMGITDVFSSSANLSGISSAESLKISQAVHAAHAEINEAGREVVGSAEAGVDAASVSEEFRADHPFLFCIKHIATNAVLFFGRCVSP
For B1, the “OVA-specific CTL activity” value in the assay on EG-7.OVA cells is “not detected”. For the same molecule, the “serum antibody response to OVA” value in the assay on ovalbumin (OVA) [1] (nasal, 25 μg OVA +/- 1.25% CRL1005 in 20 μl, twice) is reported as “failed to induce antibody responses”; in the assay with ovalbumin (OVA) [1] (oral, 125 μg OVA +/- 1.25% CRL1005 in bicarbonate buffer, twice), “failed to induce antibody responses”; in the assay with ovalbumin (OVA) [1] (s.c., 25 μg OVA +/- 1.25% CRL1005, twice, 14 days after second immunization) it was “effective”. Also, the OVA-specific antibody responses entry with ovalbumin (OVA) [2] is reported as “not induced”. The cytokine responses entry in assay [3] is on record as “did not induce measurable cytokine responses”.
